Experimental data: patent US20250043001A1 (Xencor, published 2025)

Molecular target: T1, STEAP1 (UniProt Q9UHE8 1-339, limits assumed)
T1 construct: whole, on cells; also called Six-Transmembrane Epithelial Antigen of the Prostate 1
Experiment: cell binding (MFI) on LOX-IMVI cells expressing STEAP1
Source text: STEAP1 x CD28 bsAbs were engineered in 2+1 formats (mAb-scFv or Fab₂-scFv-Fc) to investigate the effects of bivalent binding to STEAP1 antigen compared with monovalent binding of a STEAP1 x CD28 bsAb in the 1+1 Fab-scFv format. LOX-IMVI cells (which express both STEAP1 at—8000 antigens/cell as well as an aCD3-scFv in order to provide Signal 1) were mixed with purified T cells at a 1:1 E:T ratio. As depicted in FIG. 36, XENP47235 in the […] format reaches a higher level of binding as measured by the MFI, indicating a higher antigen binding capacity and potentially higher efficacy. […] Each format may be advantageous in different contexts.

B1: XENP47241 (bispecific antibody)
heavy 1: QVQVQESGPGLVKPSQTLSLTCTVSGYSITSDYSWNWIRQPPGKKLEWIGYIGTSGSTVYNPSLKSRVTISRDTSKNQFSLKLSSVTAADTAVYYCARERNYDYELYYYAMDYWGQGTLVTVSSASTKGPSVFPLAPSSKSTSGGTAALGCLVKDYFPEPVTVSWNSGALTSGVHTFPAVLQSSGLYSLSSVVTVPSSSLGTQTYICNVNHKPSDTKVDKKVEPKSCDKTHTCPPCPAPPVAGPSVFLFPPKPKDTLMISRTPEVTCVVVDVKHEDPEVKFNWYVDGVEVHNAKTKPREEEYNSTYRVVSVLTVLHQDWLNGKEYKCKVSNKALPAPIEKTISKAKGQPREPQVYTLPPSREEMTKNQVSLTCDVSGFYPSDIAVEWESDGQPENNYKTTPPVLDSDGSFFLYSKLTVDKSRWEQGDVFSCSVLHEALHSHYTQKSLSLSPGK
heavy 2: not shown
light 1: not shown
light 2: not shown
notes: also called STEAP1 x CD28 bsAb in the 2+1 mAb-scFv format
binding result: binds
